Experimental data taken from the DeepSol protein solubility set.

Assay: soluble on expression in E. coli; label from the status in PepcDB or PDB records

| Sequence | soluble on expression in E. coli |
| --- | --- |
| MSGDENPASKPTPVQDVQGDGRWMSLHHRFVADSKDKEPEVVFIGDSLVQLMHQCEIWRELFSPLHALNFGIGGDSTQHVLWRLENGELEHIRPKIVVVWVGTNNHGHTAEQVTGGIKAIVQLVNERQPQARVVVLGLLPRGQHPNPLREKNRRVNELVRAALAGHPRAHFLDADPGFVHSDGTISHHDMYDYLHLSRLGYTPVCRALHSLLLRLLTQDQGQGGAPLPEPSP | soluble |
| MVTFKPKVLHFVNATNLNQVDGTGTIVNEWIKAAGGQNALKQKGNMISVTTETLAKSDPDVIIVGSATTAEARAALKKNAVLSKLTAVKKNRVYGNPQGTFPWDRYSAEEALQVLWAAKKLHPDQFQLEHHHHHH | not soluble |
| MSLEESAVPGWVLELLREAGYKSLLPIQEKAFPIIYRGLNALVVAPTGSGKTEAALAPLLARLRNGRVASGGGVKVVYVTPLRALNRDLEGRVERLAGLFGYTVQVRHGDTVQSSRRRFLERPPDIVITTPESLALLLTVKRAKEVLKQARAVVVDEIHELMESKRGVELSLNLEKLELMAGRRLQRIGLSATVSRHSLYRAASLLGAGRHVSMVLDTSPKEYDVRVVVVGDEGRFWENSVKAIAELVKGEGGSVLIFANTRSTVETLAFALSRELGEEVPAHHGSLSRHVRERVERDFKEGRVKAIVATSSLELGIDVGRVALVVQFLSPRQVTAMVQRAGRSGHRFGERSRAVIVTIDNVFEVLESHVIAFRAMKGDLEDISIPKKPYDALAHFMAGAAIDSEPPTLEGVYKLAVSTAPYEDLKMEEVEEIARVLSDVRVIRLGPGGKLGRSSRTYSYFYRVSMIPDEKTFKVHDVVSGRDVGEVGERFIQLRLMKASDPREGHHHHHH | not soluble |
| MGNESTPLRTITQALKLARPGTVIQLTPGNYSVETGETFPLMLKPGVSIQGNTSNKGQEVKIQGGGLFLSRSFGGQNVAIVGANQAGLTGVTITNPNPRGYGLWIESSNPVISENTFTGNTQDGISVTGNSATTITKNYFYRNGANGITIGGNSPAQVRENLFEETGFGINVAQNAVPMLVSNQIQNNRSGIIVQANARPILRNNLIQGSKEDGVVAIAQAMPDLGNATEAGGNEFRNNARHDINASAAKQAIAAVGNILDTKRITGKVALEHHHHHH | not soluble |
| MSLALIVHKYGGTSVGSPERIKNVAKRVAKARAEGHDIVVVVSAMSGETNRLVALAHEMQEHPDPRELDVVLATGEQVTIGLLAMALKDIGVDAKSYTGWQVALKTDTAHTKARIESIDDEKMRADLTAGKVVIVAGFQGISSEGDISTLGRGGSDTSAVALAAALKADECQIYTDVDGVYTTDPRVVPEARRMDTVTFEEMIELASLGSKVLQIRSVEFAGKYKVRLRVLSSLQDGGNGTLITFEEDDNMERAAVTGIAFDKNQARINVRGVPDKPGVAYQILGAVADANIEVDMIIQNVGSEGTTDFSFTVPRGDYKQTLEILSERQDSIGAASIDGDDTVCKVSAVGLGMRSHVGVAAKIFRTLAEEGINIQMISTSEIKVSVLIDEKYMELATRVLHKAFNLGEGHHHHHH | soluble |
| MGSDKIHHHHHHLKVIAIGDNVVDLYPADKQMYLGGHAANTAVFAAELGLQAAYIGTFGNDARGDFARRMLVERGVDVQHSLQYVGRNAFTTITGKDGARRKVVGEPPQELRLDPEDIAYINSFDLVYLNSESHADAFLQAITARKVYDFSILDDDKLFKKIAPQIDLAYLSGKARSDDDVEALMRRVAAAGCDRIVCSRGLRGSAALVDGMMSWQQALGVKAVDSLGAGDAYITSFAATLYSSSKPTLDAKVSESLSHAAKFASAQVLLPGSFGHGAPLIS | not soluble |
| MFVLPVRFERSPRLHPMLSESPHPVGTRVVVQGKRGPEIATVRGEASEPERQARYGAVLRAATPEDLATWEDLHRRAEDLKWLLRARARERGLPVKLVAVEFTLDESLVTISYSADERIELSSLIGELRAHTRARVNFAAIGPREQAQMLGTLGACGRENCSSTHLQDFAPVSIRMARDQQLPLNPEKLSGPCGRLLCCLQYEHEQYLDLLRDLPRKNAKMCHEGSGACGKVTKLHPLAGTVDLQTDQGLLQDVPASELRRLPEQAAARSPRREPREAPASTDLEHHHHHH | soluble |
| GPLGSSAVTITLKTLQQQTFKIRMEPDETVKVLKEKIEAEKGRDAFPVAGQKLIYAGKILSDDVPIRDYRIDEKNFVVVMVTKTKAGQGTSAPPEASPTAAPESSTSFPPAPTSGMSHPPPAAREDKSPSEESAPTTSPESVSGSVPSSGSSGREEDAASTLVTGSEYETMLTEIMSMGYERERVVAALRASYNNPHRAVEYLLTGIPGSPEPEHGSVQESQVSEQPATEAAGENPLEFLRDQPQFQNMRQVIQQNPALLPALLQQLGQENPQLLQQISRHQEQFIQMLNEPPGELADISDVEGEVGAIGEEAPQMNYIQVTPQEKEAIERLKALGFPESLVIQAYFACEKNENLAANFLLSQNFDDE | soluble |
| SNVNIDSEQLFTEEKPKDYAQPEVLCHTFELLSNLHKLLPNRTVEVLHSYRSEEDKRKCEKPEFSGIEKILARHQLPKEINLSPKPSHVPSWKRKIINNISGNWKKCRLWQKSIYEPPMGTIIVRWTKKNLQPSEDLKSVIQRLSALGPIISVTPCGRESAVVVFRDAASACKAVSAFQTMSADSMFHCSWQHRFMSKNKTWSRRYPSKIHAEKKEKHP | soluble |
| MESMLLPKYFDILIVDDIPEHIDVAVQVLRDSNFKIRVATDGNTALKLIYQQKPDLILLDIYMPEMDGFELCRLIKNTPDLKNIPVIFLTSFSDEESIRKGFESGGQDYVVKPFNASELLSRVKTHLMLKCQAESLKEANKELDSFCYTVAHDLKSPLLSLNKLVELLVSDHLNQLDSAGKELVYNIREKSSEIIHTVDRLLEFSKMCEMQVNFEIIDLNELFTEVCNELKSLEPQRDIRIHIQPLPKVYGDRLLMRLLISNILSNAFKYTRNRQTAIIEIQSSEDGNEYVFFVKDNGAGFDMKYSSRLFGVFQRLHSKDEFEGSGVGLAICQRILKRHNGRAWMTGEIDKGATFFFTLPKFE | soluble |
| AENAKIKFDGVDVERDSNVINDLVPNVTLSLKKPSSDMVEAKIEPDYEGIKRVLLDFIGAYNEVLAEINIVSSNEDQPNNQKSNIVEELTYLSDSQKEEAYKNLGILRSEFLLKNLKSKLESIIFKPYVTSDPNFSIINQMGVFTNSISSSGGLSRYLRLDEKKFDESIRNNIDNVRELFLYDLNGDRVYDNGIAKMLGDCLSPLVASGGVIYNKIKNYDLKIFNQKNKVEDYKKKYEDRERKVEGELNTLDFTVKRMKD | not soluble |
| MGDLIAITYHSNALQSERQMYVWTPPGYTGMGEPLPVLYFYHGFGDTGRSAIDQGRIPQIMDNLLAEGKIKPMLVVIPDTETDAKGIIPEDFVPQERRKVFYPLNAKAADRELMNDIIPLISKRFSVRKDADGRALAGLSQGGYQALVSGMNHLESFGWLATFSGVTTTTVPDEGVAARLNDPAAINQQLRNFTVVVGDKDVVTGKDIAGLKTELEQKKIKFDYQEYPGLNHEMDVWRPAYAAFVQKFKIRHLEHHHHHH | not soluble |
| MGSDKIHHHHHHMRIDVDAFKVLEVLVEEGSFAKAAERLHKAQSAVSYQIKKLEQHLGVSLLSREQYRAELTAEGRVILAEGQRLLSHLANIEHLASRFSEGWEPKLELVIDGALPMEPIMTALKRMAEHQIPTKIQLNMEFLGGVQHRFERDNADLMLVKDYRTGPYYYAKPLPAITSVLLAAPHHPLAGRKALTLTELQQHVELTIEDSSPVKTYRDELQFGGDKVFYLSGFIMKKNALLKGLGFGWMPDFLVRDELKAGLLTEIDFVGGSRYTFVPQLVSTLERPLGRAGRLFTELILEEFAKEPMGIPEGLG | not soluble |
| VGRATQSAKELDVKIKNVIRNVHILLKQISGTDGEGNNVPSGDFSREWAEAQRMMRELRNRNFGKHLREAEADKRESQLLLNRIRTWQKTHQGENNGLANSIRDSLNEYEAKLSDLRARLQEAAAQAKQANGLNQENERALGAIQRQVKEINSLQSDFTKYLTTADSSLLQTNIALQLMEKSQKEYEKLAASLNEARQELSDKVRELSRSAGKTSLVEEAEKHARSLQELAKQLEEIKRNASGDELVRCAVDAATAYENILNAIKAAEDAANRAASASESALQTVIKEDLPRKAKTLSSNSDKLLNEAKMTQKKLKQEVSPALNNLQQTLNIVTVQKEVIDTNLTTLRDGLHGIQRGDIDAMISSAKSMVRKANDITDEVLDGLNPIQTDVERIKDTYGRTQNEDFKKALTDADNSVNKLTNKLPDLWRKIESINQQLLPLGNISDNMDRIRELIQQARDAASKVAVPMRFNGKSGVEVRLPNDLEDLKGYTSLSLFLQRPNSRENGGTENMFVMYLGNKDASRDYIGMAVVDGQLTCVYNLGDREAELQVDQILTKSETKEAVMDRVKFQRIYQFARLNYTKGATSSKPETPGVYDMDGRNSNTLLNLDPENVVFYVGGYPPDFKLPSRLSFPPYKGCIELDDLNENVLSLYNFKKTFNLNTTEVEPCRRRKEESDKNYFEGTGYARVPTQPHAPIPTFGQTIQTTVDRGLLFFAENGDRFISLNIEDGKLMVRYKLNSELPKERGVGDAINNGRDHSIQIKIGKLQKRMWINVDVQNTIIDGEVFDFSTYYLGGIPIAIRERFNISTPAFRGCMKNLKKTSGVVRLNDTVGVTKKCSEDWKLVRSASFSRGGQLSFTDLGLPPTDHLQASFGFQTFQPSGILLDHQTWTRNLQVTLEDGYIELSTSDSGGPIFKSPQTYMDGLLHYVSVISDNSGLRLLIDDQLLRNSKRLKHISSSRQSLRLGGSNFEGCISNVFVQRLSLSPEVLDLTSNSLKRDVSLGGCSLNKPPFLMLLKGSTRFNKTKTFRINQLLQDTPVASPRSVKVWQDACSPLPKTQANHGALQFGDIPTSHLLFKLPQELLKPRSQFAVDMQTTSSRGLVFHTGTKNSFMALYLSKGRLVFALGTDGKKLRIKSKEKCNDGKWHTVVFGHDGEKGRLVVDGLRAREGSLPGNSTISIRAPVYLGSPPSGKPKSLPTNSFVGCLKNFQLDSKPLYTPSSSFGVSSCLGGPLEKGIYFSEEGGHVVLAHSVLLGPEFKLVFSIRPRSLTGILIHIGSQPGKHLCVYLEAGKVTASMDSGAGGTSTSVTPKQSLCDGQWHSVAVTIKQHILHLELDTDSSYTAGQIPFPPASTQEPLHLGGAPANLTTLRIPVWKSFFGCLRNIHVNHIPVPVTEALEVQGPVSLNGCPDQ | soluble |
| MKLYQHIETLWDYMQLKQDLKPADCLFVMCSNDVRVAEHAAALYHQKLAPLIVFSGGEGRFTDGLFEKSEAETFADIARLAGVPSDAILVETRSTNSGENVRFTEQLLKEKGIQCESIILVQKPFMERRAIATFEKQWQSPYSQVQVSSTAHPFFEYINEDMPLMMVLEALMEDFSRVKSYPEKGFQTKQDIPNQVDSSYQVLLERFGFDLVLEHHHHHH | not soluble |
| MSLDAEKQLANITMGLPLSPAADSARSARHALSLIATARPPAFITTIAKEVHRHTALAANTQSQQSIHTTTLARAKGEILRVIEILIEKMPTDVVDLLVEVMDIIMYCLEGSLVKKKGLQECFPAICRFYMVSYYERSHRIAVGARHGSVALYDIRTGKCQTIHGHKGPITAVSFAPDGRYLATYSNTDSHISFWQMNTSLLGSIGMLNSAPQLRCIKTYQVPPVQPASPGSHNALKLARLIWTSNRNVILMAHDGKEHRFMVEGHHHHHH | not soluble |
| MQRRGQLSRRLVNSADRDPSDENSLSRAPAPACTSRGTHVVETTSLKRHSKVLRSQDASGTAESVNSQTPDDEVDHTLWTLVREVSDAEAAFWALRNDSRLLGFVLRSQLLALVHDDSSVTDFLEAAQQPTDVGDVQAEFILCWVPVPGGPAILWRADYQRLIEEQVARRLSELEDPARKAALWGTTREQVERDTHIRAADGSCWLRTLPCPPSVIRALTQGQKALVQQVKRMGRYGRLPLHRAELLRLSRTCFSARFHILDAVGCGTLALDAQNTLSKEPYLCLPEVRTTNIVDSGEIGF | not soluble |
